Measured values reported in patent US8034355.

Biological target: VSV L protein (wild type, rVSV) (Vesicular stomatitis Indiana virus) (UniProt P03523)
Details: 5' Gppp cap (7mGpppAm when fully methylated)

UniProt P03523, sequence (P03523 whole entry): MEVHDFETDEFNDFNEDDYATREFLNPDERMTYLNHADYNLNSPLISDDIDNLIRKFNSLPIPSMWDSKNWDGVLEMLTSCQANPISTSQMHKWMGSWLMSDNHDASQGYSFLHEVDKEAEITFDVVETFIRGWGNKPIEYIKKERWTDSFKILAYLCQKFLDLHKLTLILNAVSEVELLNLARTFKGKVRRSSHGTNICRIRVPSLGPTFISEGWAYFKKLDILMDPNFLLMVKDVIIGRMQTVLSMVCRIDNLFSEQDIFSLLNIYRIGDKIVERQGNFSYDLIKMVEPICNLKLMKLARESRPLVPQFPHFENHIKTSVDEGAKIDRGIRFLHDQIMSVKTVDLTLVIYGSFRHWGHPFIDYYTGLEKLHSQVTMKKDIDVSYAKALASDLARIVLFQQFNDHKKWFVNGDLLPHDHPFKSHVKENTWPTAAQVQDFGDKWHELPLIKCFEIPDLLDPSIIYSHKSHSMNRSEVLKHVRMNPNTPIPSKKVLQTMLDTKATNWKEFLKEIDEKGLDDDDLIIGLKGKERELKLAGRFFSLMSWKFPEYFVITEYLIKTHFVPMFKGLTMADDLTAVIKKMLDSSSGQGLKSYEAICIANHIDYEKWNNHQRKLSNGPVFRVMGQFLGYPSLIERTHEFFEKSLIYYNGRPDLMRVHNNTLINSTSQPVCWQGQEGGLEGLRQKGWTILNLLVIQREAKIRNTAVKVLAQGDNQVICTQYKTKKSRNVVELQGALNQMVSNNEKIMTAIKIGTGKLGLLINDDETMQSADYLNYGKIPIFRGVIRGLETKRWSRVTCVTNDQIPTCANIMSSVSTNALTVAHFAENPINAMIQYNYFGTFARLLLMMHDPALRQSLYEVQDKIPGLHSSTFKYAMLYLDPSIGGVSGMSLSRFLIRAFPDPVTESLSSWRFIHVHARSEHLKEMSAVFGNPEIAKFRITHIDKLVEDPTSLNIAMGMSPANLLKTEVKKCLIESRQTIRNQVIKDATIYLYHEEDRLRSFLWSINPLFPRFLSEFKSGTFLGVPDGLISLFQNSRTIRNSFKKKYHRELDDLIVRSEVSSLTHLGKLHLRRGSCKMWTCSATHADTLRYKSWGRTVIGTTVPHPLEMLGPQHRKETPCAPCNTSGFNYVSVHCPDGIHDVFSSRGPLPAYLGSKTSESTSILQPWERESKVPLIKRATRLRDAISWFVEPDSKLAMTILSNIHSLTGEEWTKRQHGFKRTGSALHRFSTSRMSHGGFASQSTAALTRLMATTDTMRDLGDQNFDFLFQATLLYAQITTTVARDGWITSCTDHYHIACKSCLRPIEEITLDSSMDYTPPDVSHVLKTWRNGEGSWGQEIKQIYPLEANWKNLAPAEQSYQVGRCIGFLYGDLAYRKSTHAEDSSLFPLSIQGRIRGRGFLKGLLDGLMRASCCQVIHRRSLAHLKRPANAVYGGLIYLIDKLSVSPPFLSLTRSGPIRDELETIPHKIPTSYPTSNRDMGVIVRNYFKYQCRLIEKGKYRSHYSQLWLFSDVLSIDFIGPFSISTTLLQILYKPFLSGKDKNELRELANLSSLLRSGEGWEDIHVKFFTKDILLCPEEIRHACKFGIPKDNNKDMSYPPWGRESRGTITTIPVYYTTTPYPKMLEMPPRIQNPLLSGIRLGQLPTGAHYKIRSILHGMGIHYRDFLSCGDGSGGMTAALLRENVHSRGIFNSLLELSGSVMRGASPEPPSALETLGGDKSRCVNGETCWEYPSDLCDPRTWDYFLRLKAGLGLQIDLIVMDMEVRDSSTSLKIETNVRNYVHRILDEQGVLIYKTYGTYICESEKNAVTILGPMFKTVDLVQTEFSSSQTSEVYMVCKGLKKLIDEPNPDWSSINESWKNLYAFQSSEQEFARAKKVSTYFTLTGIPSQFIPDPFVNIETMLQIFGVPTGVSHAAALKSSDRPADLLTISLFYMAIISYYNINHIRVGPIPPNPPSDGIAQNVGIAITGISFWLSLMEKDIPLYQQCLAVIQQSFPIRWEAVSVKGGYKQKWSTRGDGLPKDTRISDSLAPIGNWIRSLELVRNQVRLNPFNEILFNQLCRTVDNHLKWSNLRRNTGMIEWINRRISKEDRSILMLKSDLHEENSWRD

AACAG
activity (% 7mGp of released cap): 97
